Measurements published in patent publication US20210170043A1, “DC-SIGN ANTIBODY CONJUGATES COMPRISING STING AGONISTS” (NOVARTIS AG, priority 2018, published 2021).

T1: human L-SIGN (Homo sapiens, UniProt Q9H2X3)
T1 construct: expressed in transfected cells; host or cells: K562, retroviral transduction
T1 sequence (Q9H2X3 1-399): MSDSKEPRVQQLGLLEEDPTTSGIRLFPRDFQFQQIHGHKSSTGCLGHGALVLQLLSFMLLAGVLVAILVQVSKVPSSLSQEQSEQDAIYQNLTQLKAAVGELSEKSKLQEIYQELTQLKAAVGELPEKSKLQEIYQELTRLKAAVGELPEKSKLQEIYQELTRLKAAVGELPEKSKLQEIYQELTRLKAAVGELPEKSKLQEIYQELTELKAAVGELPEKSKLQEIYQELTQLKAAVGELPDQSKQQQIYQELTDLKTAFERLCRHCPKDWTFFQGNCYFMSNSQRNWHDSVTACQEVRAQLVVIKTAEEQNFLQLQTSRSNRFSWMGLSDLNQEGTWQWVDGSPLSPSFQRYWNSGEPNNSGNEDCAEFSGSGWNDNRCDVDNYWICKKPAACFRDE

T2: human DC-SIGN (Homo sapiens, UniProt Q9NNX6)
T2 construct: expressed in transfected cells
T2 sequence (Q9NNX6 1-404): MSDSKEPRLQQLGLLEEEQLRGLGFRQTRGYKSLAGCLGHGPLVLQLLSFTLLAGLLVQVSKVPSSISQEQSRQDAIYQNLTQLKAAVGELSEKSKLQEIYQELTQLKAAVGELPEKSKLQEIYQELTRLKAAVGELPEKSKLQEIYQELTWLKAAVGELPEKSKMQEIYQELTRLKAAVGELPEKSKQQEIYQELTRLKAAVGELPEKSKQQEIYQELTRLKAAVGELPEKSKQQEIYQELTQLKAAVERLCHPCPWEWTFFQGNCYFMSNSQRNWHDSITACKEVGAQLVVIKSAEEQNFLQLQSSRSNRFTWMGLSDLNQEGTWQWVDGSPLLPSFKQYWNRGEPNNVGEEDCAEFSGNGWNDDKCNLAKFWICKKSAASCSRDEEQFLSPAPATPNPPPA


Legend:
[1] = tested on: cynomolgus monkey DC-SIGN; assay: FACS binding to CHO cells stably expressing cynomolgus monkey DC-SIGN; details: FACS MFI, average
Chain of cynomolgus monkey DC-SIGN (as listed by the source): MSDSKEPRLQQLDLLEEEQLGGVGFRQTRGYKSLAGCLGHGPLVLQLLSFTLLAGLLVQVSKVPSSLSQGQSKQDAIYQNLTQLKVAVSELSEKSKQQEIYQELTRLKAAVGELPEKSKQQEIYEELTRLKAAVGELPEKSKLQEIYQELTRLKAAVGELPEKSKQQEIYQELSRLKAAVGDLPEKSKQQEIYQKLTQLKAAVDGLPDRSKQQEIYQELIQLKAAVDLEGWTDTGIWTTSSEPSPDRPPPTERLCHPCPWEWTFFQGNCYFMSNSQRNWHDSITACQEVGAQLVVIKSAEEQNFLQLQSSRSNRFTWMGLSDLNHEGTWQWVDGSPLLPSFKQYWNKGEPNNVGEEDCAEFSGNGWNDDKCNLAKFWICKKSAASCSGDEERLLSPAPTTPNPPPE
Procedure: (§1) The affinity of various antibodies and ADCs to DC-SIGN and its species orthologues was determined using FACS. Purified IgGs were titrated to determine EC50 values for binding to cell surface expressed DC-SIGN.
(§2) For this purpose, human DC-SIGN expressing or cynomolgus monkey DC-SIGN expressing stable CHO cell lines or K562 expressing DC-SIGN or K562 expressing L-SIGN cell lines were checked for density and viability using VICELL (Beckman Coulter), and washed once with 4° C. PBS. Cells were stained with DAPI (0.5 ug/mL) diluted in PBS for 30 min on ice. Cells were diluted into 4° C. FACS buffer (PBS, 10 mM EDTA, 2% FBS). 125 μl of cells were seeded (10,000 cells/well) into 96-well v-bottom plates (Nunc cat#442587) and centrifuged for 4 min at 1500 rpm at 4° C. Supernatant was removed. Cells were incubated with a serial dilution of each anti-DC-SIGN antibody in FACS buffer at concentrations ranging across several logs with a top concentration no higher than 50 μg/mL for 60 minutes at 4° C. Following incubation, cells were spun down (1500 rpm, 4 min, 4° C.) and washed two times with FACS buffer. A fluorophore-conjugated anti-hFc gamma-AF-647 (Southern Biotechnology) detection antibody was added at 1:400 and samples were incubated for 1 h on ice in the dark. Following incubation, FACS buffer was added, and the cells were spun down (1500 rpm, 4 min, 4° C.) and washed two times with FACS buffer. After the final wash, cells were resuspended in Fixative Buffer (Biolegend, 420801) and 90 μl of FACS buffer followed by readout on the flow cytometry machine (BD LSRFortessa Cell Analyzer; Cat #647177). Geometric Mean fluorescence intensity (MFI) of live, single cells was calculated in Flowjo 10.4.2 and exported into Graphpad Prism7 for EC50 determination.
In a similar experiment the antibodies were tested for cross-reactivity using engineered isogenic matched cell line.

[2] = target: T1, human L-SIGN; assay: FACS binding to K562 cells expressing human L-SIGN (selectivity); details: FACS MFI
Procedure: as §1, §2
Selectivity was assessed by measuring apparent binding affinities to isogenic cell pairs engineered to overexpress DC-SIGN as well as cell lines expressing DC-SIGN paralog L-SIGN.

[3] = target: T2, human DC-SIGN; assay: FACS binding to K562 cells expressing human DC-SIGN; details: FACS MFI
Procedure: as §1, §2

[4] = target: T2, human DC-SIGN; assay: FACS binding to CHO cells stably expressing human DC-SIGN; details: FACS MFI, average
Procedure: as §1, §2

[5] = tested on: CD11c+ dendritic cells of Tg+ mice; assay: Dendritic cell activation in DC-SIGN Tg+ mice (spleen, flow cytometry); assay type: in vivo, mouse
Procedure: Spleens were harvested 24 hours post dose and analyzed by flow cytometry to look at CD11c+ dendritic cells.

[6] = tested on: transgenic mice expressing human DC-SIGN gene (Tg+); assay: Plasma cytokine production in transgenic mice expressing human DC-SIGN (ELISA / MesoScaleDiscovery); assay type: in vivo, mouse
Procedure: FIGS. 5A-5E show exemplary data on DC-SIGN immunoconjugates inducing cytokine production in Tg+ mice. […] Plasma levels were analyzed by ELISA (IP-10 and IFNβ) or MesoScaleDiscovery Multiplex analysis (all other analytes). **** denotes p value of <0.0001 using an ANOVA with Tukey's test compared to Tg-2B2 hlgG1 DAPA C1 group.
Mice were bled 6 hours after dosing to collect plasma for analysis of circulating cytokine levels.

Molecule | cyno DC-SIGN CHO EC50 (ug/mL) ave. [1] | human L-SIGN K562 EC50 [2] | human DC-SIGN K562 EC50 [3] | human DC-SIGN CHO EC50 (ug/mL) ave. [4] | CD86 upregulation on dendritic cells (DC activation) [5] | circulating plasma IL-12p70 [6] | circulating plasma IP-10 [6]
958N05 S93A: optimization of sequences by removal of post-translational modifications, non-preferred sites; substitutions made by site directed mutagenesis (antibody) heavy: QVTLRESGPALVKPTQTLTLTCTFSGFSLSTSGISVSWIRQPPGKALEWLALIDWDDDKYYSTSLKTRLTISKDTSKNQVVLTMTNMDPVDTATYYCARTPSGSYGRYFDLWGRGTLVTVSSASTKGPSVFPLAPSSKSTSGGTAALGCLVKDYFPCPVTVSWNSGALTSGVHTFPAVLQSSGLYSLSSVVTVPSSSLGTQTYICNVNHKPSNTKVDKRVEPKSCDKTHTCPPCPAPELLGGPSVFLFPPKPKDTLMISRTPEVTCVVVAVSHEDPEVKFNWYVDGVEVHNAKTKPREEQYNSTYRVVSVLTVLHQDWLNGKEYKCKVSNKALAAPIEKTISKAKGQPREPQVYTLPPSREEMTKNQVSLTCLVKGFYPCDIAVEWESNGQPENNYKTTPPVLDSDGSFFLYSKLTVDKSRWQQGNVFSCSVMHEALHNHYTQKSLSLSPGK light: DIQLTQSPSTLSASVGDRVTITCRASQSISNWLAWYQQKPGKAPKLLIYKASSLESGVPSRFTGSGSGTEFTLTISSLQPDDFATYYCQQYNAYWTFGQGTKVEIKRTVAAPSVFIFPPSDEQLKSGTASVVCLLNNFYPREAKVQWKVDNALQSGNSQESVTEQDSKDSTYSLSSTLTLSKADYEKHKVYACEVTHQGLSSPVTKSFNRGEC | 0.16 µg/mL | >10 µg/mL | 0.060 µg/mL | 0.13 µg/mL | – | – | –
960K03 N92Q: optimization of sequences by removal of post-translational modifications, non-preferred sites; substitutions made by site directed mutagenesis (antibody) heavy: QVTLRESGPALVKPTQTLTLTCTFSGFSLSTGGMSVSWIRQPPGKALEWLALIDWDDDKYYSTSLKTRLTISKDTSKNQLVLTMTNMDPVDTATYYCARAHSGSYFDFWGQGTLVTVSSASTKGPSVFPLAPSSKSTSGGTAALGCLVKDYFPCPVTVSWNSGALTSGVHTFPAVLQSSGLYSLSSVVTVPSSSLGTQTYICNVNHKPSNTKVDKRVEPKSCDKTHTCPPCPAPELLGGPSVFLFPPKPKDTLMISRTPEVTCVVVAVSHEDPEVKFNWYVDGVEVHNAKTKPREEQYNSTYRVVSVLTVLHQDWLNGKEYKCKVSNKALAAPIEKTISKAKGQPREPQVYTLPPSREEMTKNQVSLTCLVKGFYPCDIAVEWESNGQPENNYKTTPPVLDSDGSFFLYSKLTVDKSRWQQGNVFSCSVMHEALHNHYTQKSLSLSPGK light: DIQMTQSPSTLSASVGDRVTITCRASQRISNWLAWYQQKPGKAPKLLIYKASSLESGVPSRFSGSGSGTEFTLTISSLQPDDFATYYCQQFQSYWTFGQGTKVEIKRTVAAPSVFIFPPSDEQLKSGTASVVCLLNNFYPREAKVQWKVDNALQSGNSQESVTEQDSKDSTYSLSSTLTLSKADYEKHKVYACEVTHQGLSSPVTKSFNRGEC | 0.04 µg/mL | >10 µg/mL | 0.021 µg/mL | 0.08 µg/mL | – | – | –
2B2 (DAPA) DAR2 C1 (conjugate) VH: QVQLVQSGAEVKKPGASVKVSCKASGYTFTNYGINWVRQAPGQRLEWMGYIYIGNDYTEYNERFKGRVTITSDTSASTAYMELSSLRSEDTAVYYCARLYYGSSLYSYAMDYWGQGTTVTVSS VL: DIVMTQSPLSLPVTPGEPASISCRSSKSLLHSSGNTYLYWFLQKPGQSPQLLISRMSNLASGVPDRFSGSGSGTDFTLKISRVEAEDVGVYYCMQHLEYPYTFGGGTKVEIK | – | – | – | – | induced DC activation | induced | induced
